According to patent US20060160990A1 (RIKEN, published 2006):

Key:
[1] = target: the molecule itself; experiment: self-association; pseudonative SDS/PAGE, 12.5% acrylamide, sample not boiled
Text: Since Kaede forms a tetramer, there may be cases where its expression pattern becomes abnormal when another protein is fused with Kaede. Thus, in Kaede, threonine (T) at position 158 was substituted with arginine (R), and alanine (A) at position 160 was substituted with glutamic acid (E), so as to produce a dimeric mutant. This mutant was named as Kaede 2. The amino acid sequence and nucleotide sequence of Kaede 2 are shown in SEQ ID NOS: 7 and 8 in the sequence listing, respectively. In electrophoresis on 12.5% acrylamide gel where sample was not boiled (Pseudonative SDS/PAGE), a band of Kaede 2 was detected as a molecule with a lower molecular weight than that of Kaede (FIG. 8).

[2] = target: the molecule itself; experiment: self-association; pseudonative SDS/PAGE, 12.5% acrylamide
Text: (§1) In Momiji, asparagine (N) at position 11 was substituted with arginine (R), leucine (L) at position 29 was substituted with threonine (T), tyrosine (Y) at position 122 was substituted with glutamic acid (E), lysine (K) at position 136 was substituted with asparagine (N), glutamine (Q) at position 138 was substituted with leucine (L), glutamine (Q) at position 142 was substituted with proline (P), asparagine (N) at position 159 was substituted with aspartic acid (D), alanine (A) at position 161 was substituted with serine (S), tyrosine (Y) at position 190 was substituted with threonine (T), phenylalanine (F) at position 192 was substituted with tyrosine (Y), cysteine (C) at position 196 was substituted with serine (S), and 6 amino acids from position 224 to position 229 were deleted. By such operations, the above Momiji became a dimer (FIG. 24). This dimer had fluorescence properties that ultraviolet ray-irradiation-dependently change from green to red, which were equivalent to those of Momiji (FIG. 25). This mutant was named as d16. The amino acid sequence and nucleotide sequence of d16 are shown in SEQ ID NOS: 15 and 16, respectively.

[3] = target: the molecule itself; experiment: pseudonative SDS/PAGE, 12.5% acrylamide gel (self-association)
[4] = target: the molecule itself; experiment: self-association; pseudonative SDS/PAGE, 12.5% acrylamide, not boiled
Text: as §1

B1: Kaede (fluorescent protein derived from Trachyphyllia geoffroyi) (other)
chain: MSLIKPEMKIKLLMEGNVNGHQFVIEGDGKGHPFEGKQSMDLVVKEGAPLPFAYDILTTAFHYGNRVFAKYPDHIPDYFKQSFPKGFSWERSLMFEDGGVCIATNDITLKGDTFFNKVRFDGVNFPPNGPVMQKKTLKWEASTEKMYLRDGVLTGDITMALLLKGDVHYRCDFRTTYKSRQEGVKLPGYHFVDHCISILRHDKDYNEVKLYEHAVAHSGLPDNVK
notes: also called first fluorescent protein of the present invention; not shown: N-terminal His-tag from the pRSETB vector
[1]
  binding result: binds

B2: Kaede 2 (dimeric mutant of Kaede, T158R and A160E) (other)
chain: MSLIKPEMKIKLLMEGNVNGHQFVIEGDGKGHPFEGKQSMDLVVKEGAPLPFAYDILTTAFHYGNRVFAKYPDHIPDYFKQSFPKGFSWERSLMFEDGGVCIATNDITLKGDTFFNKVRFDGVNFPPNGPVMQKKTLKWEASTEKMYLRDGVLTGDIRMELLLKGDVHYRCDFRTTYKSRQEGVKLPGYHFVDHCISILRHDKDYNEVKLYEHAVAHSGLPDNVK
notes: No tag or expression construct is stated for the gel sample
[1]
  binding result: binds

B3: d16 (dimeric mutant of Momiji) (other)
chain: MVSVIKDEMKVRLRMEGSVNGHDFVIDGTGSGKPKEGTQTIELKVVKGGPLPFAYDILTTAFHYGNRVFAKYPKDIPNYFEQSFPEGYSWERSMIFEDGGICIARNDITMDGGTFYNKVRFEGVNFPPNGPVMQKNTLKWEPSTEKMYARDGVLTGDIDMSLLLKGGGHYRCDFRTTFKAKEKGVKLPGTHYIDHSIEILSHRNDYNNVTLFEHAVARSGLQD
notes: No tag is stated for the gel sample
[2]
  binding result: binds

B4: m16 (monomeric mutant of Momiji) (other)
chain: MVSVIKDEMKVRLRMEGSVNGHDFVIDGTGSGKPKEGTQTIELKVVKGGPLPFAYDILTTAFHYGNRVFAKYPKDIPNYFEQSFPEGYSWERSMTFEDGGVCTARNDITMDGGTFYNKVRFEGTNFPPNGPVMQKKTLKWEPSTEKMYARDGVLTGDIDMSLLLKGGGHYRCDMRTTFKAKEKGVKLPGTHYIDHSIEILSHRNDYNNVTLYEHAVARSGLQD
notes: as for B3
[3]
  binding result: no binding

B5: Momiji (fluorescent protein derived from Scolymia vitiensis) (other)
chain: MVSVIKDEMKVNLRMEGSVNGHDFVIDGLGSGKPKEGTQTIELKVVKGGPLPFAYDILTTAFHYGNRVFAKYPKDIPNYFEQSFPEGYSWERSMIFEDGGICIARNDITMDGGTFYNKVRFYGVNFPPNGPVMQKKTQKWEQSTEKMYARDGVLTGDINMALLLKGGGHYRCDFRTTFKAKEKGVKLPGYHFIDHCIEILSHRNDYNNVTLFEHAVARSGLQDKEKQQQ
notes: Found to be a tetramer by pseudonative SDS/PAGE; also called WT (Momiji); wild type (Momiji); not shown: His-tag from the pET28 vector, said to be at the N-terminus
[4]
  binding result: binds
